Substitutions are numbered along the chain they refer to.
B1: DA8 (antibody, V domains shown)
VH: EVQLVESGGGLVQPGGSLRLSCAASGFTFSSFNMLWVRQAPGKGLEWVAGIGKSDRYTGYGSAVKGRFTISRDDSKSTVYLQMNSLRAEDTAVYYCVRDAGSGCGSGGWTGACIDTWGQGTLVTVSS
VL: DIQMTQSPSSLSASVGDRVTITCSGGDSYAGSYYYGWYQQKPGKAPKTLIYNNNNRPSGVPSRFSGSGSGTDFTLTISSLQPEDFATYYCGSRDSSYVGIFGQGTKVEIK
B2: DA9 (antibody, V domains shown)
VH: B1 VH with V79L
VL: B1 VL with G68R
B3: DA15 (antibody, V domains shown)
VH: B1 VH with D74T, S77N, V79A, V97S
VL: B1 VL with G68R, S96D, Y97G, V98G, I100R
B4: DA17 (antibody, V domains shown)
VH: B1 VH
VL: B1 VL with R56K, P57A, S58K, G68R
B5: DA18 (antibody, V domains shown)
VH: B1 VH
VL: B1 VL with G68R, S96D, Y97G, V98G, I100R
B6: DA22 (antibody, V domains shown)
VH: B1 VH with G103P
VL: B1 VL with G68T
B7: DA23 (antibody, V domains shown)
VH: B1 VH with G103P, S106K
VL: B1 VL with G68T
B8: D0 (antibody, V domains shown)
VH: AVTLDESGGGLQTPGGGLSLVCKGSGFTFSSFNMLWVRQAPGKGLEWVAGIGKSDRYTGYGSAVKGRATISRDDGQSTVRLQLNNLRAEDTGTYYCVKDAGSGCGSGGWTGACIDTWGHGTEVIVSS
VL: LTQPSSVSANLGGTVEITCSGGDSYAGSYYYGWYQQKAPGSAPVTVIYNNNNRPSNIPSRFSGSTSGSTATLTITGVQAEDEAVYFCGSRDSSYVGIFGAGTTLTVL
B9: DA26 (antibody, V domains shown)
VH: B8 VH with R80Y, L83M, N85S
VL: B8 VL with V84T, F86Y
B10: DA28 (antibody, V domains shown)
VH: B8 VH with V79A
VL: B8 VL
B11: DA29 (antibody, V domains shown)
VH: B8 VH with V79A
VL: B8 VL with V84T
B12: DA3 (antibody, V domains shown)
VH: B1 VH with D74T
VL: B1 VL with G68T
B13: DA35 (antibody, V domains shown)
VH: B8 VH with V79A, L83M, N85S, G92A, T93V
VL: B8 VL with V84T
B14: DA4 (antibody, V domains shown)
VH: B1 VH with S77N
VL: B1 VL with G68T
B15: DA6 (antibody, V domains shown)
VH: B1 VH with V97A
VL: B1 VL with G68T
B16: DA7 (antibody, V domains shown)
VH: B1 VH with V97S
VL: B1 VL with G68T
B17: DA10 (antibody, V domains shown)
VH: B1 VH with D74T, S77N, V79A, V97S
VL: B1 VL with G68R
B18: DA12 (antibody, V domains shown)
VH: B1 VH with D74T, S77N, V79A, V97S
VL: B1 VL with R56L, P57M, S58P, G68R
B19: DA13 (antibody, V domains shown)
VH: B1 VH with D74T, S77N, V79A, V97S
VL: B1 VL with G68R, S96A, Y97G, V98M, I100A
B20: DA1 (antibody, V domains shown)
VH: B1 VH
VL: B1 VL with G68T
B21: DA14 (antibody, V domains shown)
VH: B1 VH with D74T, S77N, V79A, V97S
VL: B1 VL with R56K, P57A, S58K, G68R
B22: DA16 (antibody, V domains shown)
VH: B1 VH with D74T, S77N, V79A, V97S
VL: B1 VL with G68R, Y97G, V98A, I100G
B23: DA20 (antibody, V domains shown)
VH: B1 VH
VL: B1 VL with G68R, S96A, Y97G, V98M, I100A
B24: DA21 (antibody, V domains shown)
VH: B1 VH
VL: B1 VL with G68R, Y97G, V98A, I100G
B25: DA24 (antibody, V domains shown)
VH: B8 VH
VL: B8 VL with V84T, F86Y
B26: DA2 (antibody, V domains shown)
VH: B1 VH
VL: B1 VL with G68R
B27: DA25 (antibody, V domains shown)
VH: B8 VH with R80Y, L83M, N85S
VL: B8 VL
B28: DA27 (antibody, V domains shown)
VH: B8 VH
VL: B8 VL with V84T
B29: DA32 (antibody, V domains shown)
VH: B8 VH with G92A, T93V
VL: B8 VL
B30: DA34 (antibody, V domains shown)
VH: B8 VH with V79A, R80Y, L83M, N85S, G92A, T93V
VL: B8 VL with V84T, F86Y

What follows are binders tested against human DR5 (human) (assay: SPR (BIAcore X100), human DR5 on CM5 chip, IgG injected, 1:1 Langmuir model).

| Binder | Kd | koff | kon |
| --- | --- | --- | --- |
| B1 | < 6.25 pM | < 1e-05 s⁻¹ | 1.6e+06 M⁻¹ s⁻¹ |
| B2 | 0.071 pM | 4e-07 s⁻¹ | 5.6e+06 M⁻¹ s⁻¹ |
| B3 | 1.09 pM | 2.78e-06 s⁻¹ | 2.56e+06 M⁻¹ s⁻¹ |
| B4 | 23.5 pM | 5.97e-05 s⁻¹ | 2.54e+06 M⁻¹ s⁻¹ |
| B5 | 27.7 pM | 3.67e-05 s⁻¹ | 1.33e+06 M⁻¹ s⁻¹ |
| B6 | 34.2 pM | 3.19e-05 s⁻¹ | 932000 M⁻¹ s⁻¹ |
| B7 | 40.3 pM | 2.8e-05 s⁻¹ | 696000 M⁻¹ s⁻¹ |
| B8 | 15.2 pM | 2.26e-05 s⁻¹ | 1.49e+06 M⁻¹ s⁻¹ |
| B9 | 1.01 pM | 1.1e-06 s⁻¹ | 1.09e+06 M⁻¹ s⁻¹ |
| B10 | 3.89 pM | 4.52e-06 s⁻¹ | 1.16e+06 M⁻¹ s⁻¹ |
| B11 | 69.8 pM | 8.47e-05 s⁻¹ | 1.21e+06 M⁻¹ s⁻¹ |
| B12 | – | < 1e-05 s⁻¹ | 4.9e+06 M⁻¹ s⁻¹ |
| B13 | 80.1 pM | 9.12e-05 s⁻¹ | 1.13e+06 M⁻¹ s⁻¹ |
| B14 | 0.1 pM | 1.2e-07 s⁻¹ | 1.2e+06 M⁻¹ s⁻¹ |
| B15 | 0.53 pM | 4.2e-06 s⁻¹ | 7.8e+06 M⁻¹ s⁻¹ |
| B16 | 1.9 pM | 2.9e-06 s⁻¹ | 1.4e+06 M⁻¹ s⁻¹ |
| B17 | 7 pM | 1.6e-05 s⁻¹ | 2.3e+06 M⁻¹ s⁻¹ |
| B18 | 12.7 pM | 2.99e-05 s⁻¹ | 2.37e+06 M⁻¹ s⁻¹ |
| B19 | 11.2 pM | 2.94e-05 s⁻¹ | 2.62e+06 M⁻¹ s⁻¹ |
| B20 | < 2 pM | < 1e-05 s⁻¹ | 4.9e+06 M⁻¹ s⁻¹ |
| B21 | 23.5 pM | 0.0001 s⁻¹ | 4.27e+06 M⁻¹ s⁻¹ |
| B22 | 26.1 pM | 5.53e-05 s⁻¹ | 2.11e+06 M⁻¹ s⁻¹ |
| B23 | 12 pM | 1.21e-05 s⁻¹ | 1e+06 M⁻¹ s⁻¹ |
| B24 | 6.43 pM | 7.17e-06 s⁻¹ | 1.11e+06 M⁻¹ s⁻¹ |
| B25 | 1.02 pM | 1.23e-06 s⁻¹ | 1.2e+06 M⁻¹ s⁻¹ |
| B26 | < 5.3 pM | – | 1.9e+06 M⁻¹ s⁻¹ |
| B27 | 1.62 pM | 1.71e-06 s⁻¹ | 1.05e+06 M⁻¹ s⁻¹ |
| B28 | 1.92 pM | 2.24e-06 s⁻¹ | 1.17e+06 M⁻¹ s⁻¹ |
| B29 | 75.1 pM | 8.59e-05 s⁻¹ | 1.14e+06 M⁻¹ s⁻¹ |
| B30 | 94.2 pM | 9.5e-05 s⁻¹ | 1e+06 M⁻¹ s⁻¹ |

Each binder was assayed against human DR5 (human) (assay: ELISA: human DR5 coated on the plate (10 ng/ml), antibody titrated, anti-human Fc-HRP, TMB, absorbance at 450 nm).

| Binder | EC50 (read off the curve) |
| --- | --- |
| B1 | 0.02 µg/mL |
| B2 | 0.02 µg/mL |
| B3 | 0.01 µg/mL |
| B4 | 0.03 µg/mL |
| B5 | 0.03 µg/mL |
| B6 | 0.02 µg/mL |
| B7 | 0.01 µg/mL |
| B8 | 0.006 µg/mL |
| B9 | 0.02 µg/mL |
| B10 | 0.02 µg/mL |
| B11 | 0.01 µg/mL |

From patent US20230133381A1
